From patent US20190225979A1

Target: fetuin

Substance: recombinant protein of H5 hemagglutinin ectodomain (H5HA)
- absorbance at 450 nm: 0.15 O.D. 450
